In data set [1] the target is T1, membrane IL-6R on BAF/gp130/IL6R/TNF cells (Homo sapiens) (UniProt P08887).
T1 sequence: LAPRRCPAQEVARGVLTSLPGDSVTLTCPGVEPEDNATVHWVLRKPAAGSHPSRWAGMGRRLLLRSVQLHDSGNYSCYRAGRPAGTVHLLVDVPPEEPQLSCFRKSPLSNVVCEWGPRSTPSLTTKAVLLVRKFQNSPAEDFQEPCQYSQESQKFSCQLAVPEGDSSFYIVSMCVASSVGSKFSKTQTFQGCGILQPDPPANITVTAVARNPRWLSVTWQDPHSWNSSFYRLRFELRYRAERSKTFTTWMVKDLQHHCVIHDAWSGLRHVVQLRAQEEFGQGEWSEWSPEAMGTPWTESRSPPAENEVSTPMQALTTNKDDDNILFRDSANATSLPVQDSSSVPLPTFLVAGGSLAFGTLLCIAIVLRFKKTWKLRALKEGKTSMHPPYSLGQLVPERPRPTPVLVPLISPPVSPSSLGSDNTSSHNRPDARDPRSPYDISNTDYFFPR
Briefly: flow cytometry. (In general: A flow cytometer gives signals particle by particle.)

Data set [2] deals with T2, Hyper-IL-6 (IL-6 and sIL-6R fusion, flexible linker) (Homo sapiens, UniProt P08887 113-323+P05231:29-212, internal_change). Briefly: filter binding.
Data set [3] has as its target T2, Hyper-IL-6 (IL-6 and sIL-6R fusion, …). Briefly: filter binding. This is another data set of the same source.

Take GGGGAGGCUGUGGUGAGGG [AIR-3A Atto647N]: in data set [1], the Kd (usually the constant that tells how readily two partners part at equilibrium) turned out to be 8.5 nM.

B1: AIR-3A (structured_RNA)
RNA: GGGGAGGCUGUGGUGAGGG
B1: the Kd in data set [2] turned out to be 60.4 ± 16 nM.

B2: G17U/G18U (ssRNA)
RNA: GGGGAGGCUGUGGUGAUUG
For the molecule B2, the binding result in data set [3] is listed as “no binding”.

B3: G18U (ssRNA)
RNA: GGGGAGGCUGUGGUGAGUG
As to B3, the binding result in data set [3] is given as “no binding”.

B4: G17U (ssRNA)
RNA: GGGGAGGCUGUGGUGAUGG
Regarding B4, the binding result in data set [3] is recorded as “no binding”.
